Here are results for 1 molecule from article PMC7719180, “HDAC8-dependent deacetylation of PKM2 directs nuclear localization and glycolysis to promote proliferation in hepatocellular carcinoma” (Cell Death & Disease, 2020).

The test addresses T1, GST-PKM2 (GST fusion PKM2) (UniProt P14618 1-531).
T1 construct: Pyruvate kinase M2 (PKM2); also called recombinant GST- PKM2; source: E. coli BL21 (DE3), purified (Glutathione-Sepharose 4B)
Kind of test: pull-down; GST-PKM2 on glutathione-sepharose beads incubated with His-HDAC8 at 4 °C (overnight in the methods, 3 h in the legend); washed 5 times with PBST; SDS-PAGE and Coomassie Blue staining; GST-vector as control. Conditions: both partners purified.

T1 sequence (P14618 whole entry, the tested form may be a part): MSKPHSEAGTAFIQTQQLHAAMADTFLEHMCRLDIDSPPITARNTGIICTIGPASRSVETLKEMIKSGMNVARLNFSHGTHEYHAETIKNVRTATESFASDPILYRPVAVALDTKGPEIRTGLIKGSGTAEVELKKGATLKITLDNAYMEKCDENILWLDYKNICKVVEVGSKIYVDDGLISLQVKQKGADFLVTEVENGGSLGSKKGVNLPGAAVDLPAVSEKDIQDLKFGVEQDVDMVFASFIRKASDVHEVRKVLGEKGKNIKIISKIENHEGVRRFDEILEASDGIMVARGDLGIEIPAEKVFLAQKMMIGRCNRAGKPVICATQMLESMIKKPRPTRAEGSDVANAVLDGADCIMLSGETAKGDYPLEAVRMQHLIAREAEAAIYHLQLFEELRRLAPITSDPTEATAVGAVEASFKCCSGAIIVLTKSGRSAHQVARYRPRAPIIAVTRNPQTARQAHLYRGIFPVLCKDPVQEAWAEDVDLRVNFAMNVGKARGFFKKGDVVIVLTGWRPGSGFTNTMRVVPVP

B1: His-HDAC8 (His fusion HDAC8) (enzyme, UniProt Q9BY41 1-377, looked up)
chain: MEEPEEPADSGQSLVPVYIYSPEYVSMCDSLAKIPKRASMVHSLIEAYALHKQMRIVKPKVASMEEMATFHTDAYLQHLQKVSQEGDDDHPDSIEYGLGYDCPATEGIFDYAAAIGGATITAAQCLIDGMCKVAINWSGGWHHAKKDEASGFCYLNDAVLGILRLRRKFERILYVDLDLHHGDGVEDAFSFTSKVMTVSLHKFSPGFFPGTGDVSDVGLGKGRYYSVNVPIQDGIQDEKYYQICESVLKEVYQAFNPKAVVLQLGADTIAGDPMCSFNMTPVGIGKCLKYILQWQLATLILGGGGYNLANTARCWTYLTGVILGKTLSSEIPDHEFFTAYGPDYVLEITPSCRPDRNEPHRIQQILNYIKGNLKHVV
notes: Histone deacetylase 8 (HDAC8)
Take B1: the binding result was “binds”.
